Substitutions are numbered along the chain they refer to.
Experiments:
[1] = test system: T1, HCV-P preferred substrate construct (DEMEECASHL)
T1 sequence: DEMEECASHL

[2] = molecular target: T2, human granzyme K preferred substrate construct (CGYGPKKKRKVGG)
T2 chain: CGYGPKKKRKVGG

[3] = molecular target: human AblTK preferred substrate construct
[4] = molecular target: T3, TENLYFESGTRRW peptide substrate
T3 chain: TENLYFESGTRRW

[5] = molecular target: T4, TENLYFHSGTRRW peptide substrate
T4 chain: TENLYFHSGTRRW

[6] = molecular target: T5, Aga2 substrate fusion polypeptide with HCV-P counter selection sequence and TEV-P selection substrate ENLYFQS
T5 chain: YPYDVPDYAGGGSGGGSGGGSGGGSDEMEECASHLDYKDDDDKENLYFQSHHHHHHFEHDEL

**Q.** hepatitis C protease (HCV-P) was tested. Which “YESS two-color FACS (PE / FITC)” value [1] did it give?
**A.** displayed relatively similar PE but low FITC signals by FACS compared to the controls lacking proteases

B1: human granzyme K protease (GrK) (protein)
chain: IIGGKEVSPHSRPFMASIQYGGHHVCGGVLIDPQWVLTAAHCQYRFTKGQSPTVVLGAHSLSKNEASKQTLEIKKFIPFSRVTSDPQSNDIMLVKLQTAAKLNKHVKMLHIRSKTSLRSGTKCKVTGWGATDPDSLRPSDTLREVTVTVLSRKLCNSQSYYNGDPFITKDMVCAGDAKGQKDSCKGDSGGPLICKGVFHAIVSGGHECGVATKPGIYTLLTKKYQTWIKSNLVPPHTN
**Q.** How did the “YESS two-color FACS (PE / FITC)” value [2] turn out when B1 was run?
**A.** displayed relatively similar PE but low FITC signals by FACS compared to the controls lacking proteases

B2: human Abelson tyrosine kinase (AblTK) (protein)
chain: SPNYDKWEMERTDITMKHKLGGGQYGEVYEGVWKKYSLTVAVKTLKEDTMEVEEFLKEAAVMKEIKHPNLVQLLGVCTREPPFYIITEFMTYGNLLDYLRECNRQEVNAVVLLYMATQISSAMEYLEKKNFIHRDLAARNCLVGENHLVKVADFGLSRLMTGDTYTAHAGAKFPIKWTAPESLAYNKFSIKSDVWAFGVLLWEIATYGMSPYPGIDLSQVYELLEKDYRMERPEGCPEKVYELMRACWQWNPSDRPSFAEIHQAFETMFQESSISDEVEKELGK
**Q.** Which “YESS FACS (Alexa Fluor 647 anti-phosphotyrosine / anti-6xHis-FITC)” value [3] does the source give for B2 here?
**A.** displayed relatively similar FITC but high Alexa Fluor@647 signals by FACS

B3: TEV-PE10, purified (protein)
chain: HHHHHHSLFKGPRDYNPISSTICHLTNESDGHTTSLYGIGFGPFIITNKHLFRRNNGTLLVQSLHGVFKVKNTTTLQQHLIDGRDMIIIRMPKDFPPFPQKLKFREPQREERICLVTTNFQTKRMSSMVSDTSCTFPSSDGIFWKHWIQTKRGQCGSPLVSTRDGFIVGIHSASNFANTNKYFTSVPKNFMELLTNQEAQQWVSGWRLNADSVLWGGHKVFIPKPEEPFQPVKEATQLMN
**Q.** Which results are given for B3?
**A.** KM [4]: 0.0128 mM; fold higher kcat/KM on TENLYFESGTRRW versus […] [4]: 13-fold higher kcat/KM value; kcat [4]: 0.0255 s⁻¹; kcat/KM [4]: 2.06 mM⁻¹ s⁻¹; reversal of substrate specificity compared to TEV-P [4]: 5000-fold reversal of substrate specificity compared to TEV-P

B4: wild-type TEV protease (TEV-P), purified (protein)
chain: B3 chain with R124S, R152D, A177T, K181N, I222M
**Q.** How did the KM [4] turn out when B4 was run?
**A.** 1.93 mM

**Q.** What about the “fold by which kcat/KM on […] exceeds kcat/KM on TENLYFESGTRRW” value [4] of the same molecule?
**A.** 375-fold

**Q.** What about the kcat [4] of the same molecule?
**A.** 0.00609 s⁻¹

**Q.** What about the kcat/KM [4] of the same molecule?
**A.** 0.00314 mM⁻¹ s⁻¹

**Q.** What about the KM [5] of the same molecule?
**A.** 0.64 mM

**Q.** And the “fold by which kcat/KM on […] exceeds kcat/KM on TENLYFHSGTRRW” value [5]?
**A.** 150-fold

**Q.** And the kcat [5]?
**A.** 0.00493 s⁻¹

**Q.** And the kcat/KM [5]?
**A.** 0.00755 mM⁻¹ s⁻¹

B5: TEV-PH21, purified (protein)
chain: B3 chain with T21A, R124S, T150A, R152P, S157C, S172T, S174A, K181N, I222M
**Q.** Which KM [5] does the source give for B5 here?
**A.** 0.25 mM

**Q.** What about the fold higher kcat/KM on TENLYFHSGTRRW versus […] [5] of the same molecule?
**A.** 7 fold

**Q.** What about the kcat [5] of the same molecule?
**A.** 0.0375 s⁻¹

**Q.** What about the kcat/KM [5] of the same molecule?
**A.** 0.15 mM⁻¹ s⁻¹

**Q.** What about the “reversal of substrate specificity compared to TEV-P” value [5] of the same molecule?
**A.** 1100-fold reversal of substrate specificity compared to TEV-P

B6: TEV-P anchored with a C-terminal ER retention sequence, expressed in the yeast ER (protein)
chain: SLFKGPRDYNPISSTICHLTNESDGHTTSLYGIGFGPFIITNKHLFRRNNGTLLVQSLHGVFKVKNTTTLQQHLIDGRDMIIIRMPKDFPPFPQKLKFREPQREERICLVTTNFQTKSMSSMVSDTSCTFPSSDGIFWKHWIQTKDGQCGSPLVSTRDGFIVGIHSASNFTNTNNYFTSVPKNFMELLTNQEAQQWVSGWRLNADSVLWGGHKVFMPKPEEPFQPVKEATQLMNFEHDEL
**Q.** B6 was tested. Which “YESS two-color FACS (anti-FLAG-PE / anti-6xHis-FITC)” value [6] did it give?
**A.** high PE but low FITC fluorescence

Reference: patent US20140017764
